{"source": "paper doi:10.1101/2020.03.23.004119", "about": "(bioRxiv, 2020)", "molecular_target": "the molecule itself", "assay": "two-hybrid"}
{"protein": "hPFKFB4 mammalian two-hybrid fusion (pBind-PFKFB4 and pAct-PFKFB4) (enzyme, human, UniProt Q16877 1-469, looked up) MASPRELTQNPLKKIWMPYSNGRPALHACQRGVCMTNCPTLIVMVGLPARGKTYISKKLTRYLNWIGVPTREFNVGQYRRDVVKTYKSFEFFLPDNEEGLKIRKQCALAALRDVRRFLSEEGGHVAVFDATNTTRERRATIFNFGEQNGYKTFFVESICVDPEVIAANIVQVKLGSPDYVNRDSDEATEDFMRRIECYENSYESLDEDLDRDLSYIKIMDVGQSYVVNRVADHIQSRIVYYLMNIHVTPRSIYLCRHGESELNLKGRIGGDPGLSPRGREFAKSLAQFISDQNIKDLKVWTSQMKRTIQTAEALGVPYEQWKVLNEIDAGVCEEMTYEEIQDNYPLEFALRDQDKYRYRYPKGESYEDLVQRLEPVIMELERQENVLVICHQAVMRCLLAYFLDKAAEQLPYLKCPLHTVLKLTPVAYGCKVESIFLNVAAVNTHRDRPQNVDISRPPEEALVTVPAHQ", "values": [{"measurement": "fold luciferase expression over the negative controls", "result": 6, "unit": "fold"}]}
